Where a chain is given by its changes, count along the chain named.
Key:
[1] = target: T1, full-length Vac8 (S. cerevisiae, UniProt P39968 1-578); assay: ITC
T1 sequence (looked up): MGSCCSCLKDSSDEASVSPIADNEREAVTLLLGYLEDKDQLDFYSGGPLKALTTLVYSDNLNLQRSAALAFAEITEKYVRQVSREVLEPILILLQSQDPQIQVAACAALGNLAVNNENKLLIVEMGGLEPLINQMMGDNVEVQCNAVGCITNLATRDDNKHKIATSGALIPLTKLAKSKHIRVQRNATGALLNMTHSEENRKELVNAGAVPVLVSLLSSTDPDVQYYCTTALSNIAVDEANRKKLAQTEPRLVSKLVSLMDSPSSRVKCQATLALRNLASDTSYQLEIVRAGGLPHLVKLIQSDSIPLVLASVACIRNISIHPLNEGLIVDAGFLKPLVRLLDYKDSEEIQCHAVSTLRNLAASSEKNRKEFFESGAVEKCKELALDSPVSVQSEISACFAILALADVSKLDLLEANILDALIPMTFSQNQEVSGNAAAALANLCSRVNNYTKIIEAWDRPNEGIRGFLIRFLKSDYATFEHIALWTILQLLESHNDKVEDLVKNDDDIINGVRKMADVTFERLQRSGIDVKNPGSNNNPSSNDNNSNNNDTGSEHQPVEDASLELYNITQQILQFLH

[2] = target: T2, Vac8[40–515] (S. cerevisiae, UniProt P39968 40-515); assay: SEC
T2 sequence (looked up): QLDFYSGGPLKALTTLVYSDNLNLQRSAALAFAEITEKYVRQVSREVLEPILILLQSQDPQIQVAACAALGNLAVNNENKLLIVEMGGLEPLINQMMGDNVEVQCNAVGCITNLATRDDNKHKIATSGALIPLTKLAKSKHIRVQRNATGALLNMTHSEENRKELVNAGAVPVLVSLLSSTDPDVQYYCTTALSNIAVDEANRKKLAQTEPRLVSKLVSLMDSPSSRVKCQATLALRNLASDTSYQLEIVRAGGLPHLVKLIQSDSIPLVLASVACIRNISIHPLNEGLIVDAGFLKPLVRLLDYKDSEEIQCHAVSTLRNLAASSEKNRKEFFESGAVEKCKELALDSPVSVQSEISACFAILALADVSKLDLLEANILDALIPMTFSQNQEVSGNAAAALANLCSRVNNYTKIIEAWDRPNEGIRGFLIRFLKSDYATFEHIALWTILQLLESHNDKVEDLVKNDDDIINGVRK

[3] = target: T3, Vac8[40–515]^N60R,N62R (S. cerevisiae, UniProt P39968 40-515, N60R | N62R); assay: SEC
T3 sequence (looked up): T2 sequence (looked up) with N21R, N23R

[4] = target: T4, Vac8[40–515]^N62R (S. cerevisiae, UniProt P39968 40-515, N62R); assay: SEC
T4 sequence (looked up): T2 sequence (looked up) with N23R

Measured: binding result

B1: tAtg13 (Atg13 construct comprising residues 567–695) (domain or fragment, S. cerevisiae, UniProt Q06628 567-695, looked up)
chain: GGNSSTSALNSRRNSLDKSSNKQGMSGLPPIFGGESTSYHHDNKIQKYNQLGVEEDDDDENDRLLNQMGNSATKFKSSISPRSIDSISSSFIKSRIPIRQPYHYSQPTTAPFQAQAKFHKPANKLIDNG
binds: [1] | [2] | [3] | [4]

Reference: publication PMC7469494 (Autophagy, 2019)
